B1: KANK1_ANKRD^SF (Trx-tagged) (domain or fragment, mouse, UniProt E9Q238 1081-1360, looked up)
chain: EPEKEEIRERYELSEKMLSACNLLKYNIKDPKALASKDMRICLNTLQHDWFRVSSQKSAVPAMVGDYIAAFEAVSPDVLRYIINMADGNGNTALHYSVFHSNFQIVKLLLDADVCNVDHQNKAGYTPIMLAALAAVEAEKDMQVVEELFSCGDVNAKASQAGQTALMLAVSHGRIDMVKGLLACGADVNIQDDEGSTALMCASEHGHVEIVKLLLAQPGCNGHLEDNDGSTALSIALEAGHKDIAVLLYAHLNFSKAQSPSTPRLGRKTSPGPTHRGSFD

Key:
[1] = molecular target: eIF4A1 Q148L (mouse, UniProt P60843 1-406, Q148L); test: ITC
[2] = molecular target: eukaryotic translation initiation factor 4A1 (eIF4A1), Trx-tagged (mouse, UniProt P60843 1-406); test: ITC
[3] = molecular target: B1; test: SEC
[4] = molecular target: eIF4A1_NTD (residues 1-238, crystallised) (mouse, UniProt P60843 1-238); test: crystal structure

## B1
[1]
  Kd: 1900 nM
[2]
  binding result: binds

B2: eIF4A1 NTD (residues 1-237) (domain or fragment, mouse, UniProt P60843 1-237, looked up)
chain: MSASQDSRSRDNGPDGMEPEGVIESNWNEIVDSFDDMNLSESLLRGIYAYGFEKPSAIQQRAILPCIKGYDVIAQAQSGTGKTATFAISILQQIELDLKATQALVLAPTRELAQQIQKVVMALGDYMGASCHACIGGTNVRAEVQKLQMEAPHIIVGTPGRVFDMLNRRYLSPKYIKMFVLDEADEMLSRGFKDQIYDIFQKLNSNTQVVLLSATMPSDVLEVTKKFMRDPIRILVK
[3]
  binding result: binds

B3: KANK1_ANKRD^SF (residues 1088-1338, crystallised) (domain or fragment, mouse, UniProt E9Q238 1088-1338, looked up)
chain: RERYELSEKMLSACNLLKYNIKDPKALASKDMRICLNTLQHDWFRVSSQKSAVPAMVGDYIAAFEAVSPDVLRYIINMADGNGNTALHYSVFHSNFQIVKLLLDADVCNVDHQNKAGYTPIMLAALAAVEAEKDMQVVEELFSCGDVNAKASQAGQTALMLAVSHGRIDMVKGLLACGADVNIQDDEGSTALMCASEHGHVEIVKLLLAQPGCNGHLEDNDGSTALSIALEAGHKDIAVLLYAHLNFSKAQ
[4]
  stoichiometry N: 1
